Test [1] has as its target hen egg white lysozyme (hen) (UniProt P00698). The test can be described thus: fluorescence at 535 nm, excitation at 480 nm, lysozyme 10 nM to 2 uM in 50 mM Tris-HCl, 150 mM NaCl, pH 7.5.
Test [2] has the same target. Kind of test: fluorescence emission, excitation at 469 nm, lysozyme at 100 nM and 1 uM, three preparations.
For test [3] the target is unchanged. Kind of test: fluorescence emission after addition of lysozyme, excitation at 469 nm, several preparations.

The source of these data is US20030153012A1.

Sequence of UniProt P00698 (P00698 19-147 limits assumed): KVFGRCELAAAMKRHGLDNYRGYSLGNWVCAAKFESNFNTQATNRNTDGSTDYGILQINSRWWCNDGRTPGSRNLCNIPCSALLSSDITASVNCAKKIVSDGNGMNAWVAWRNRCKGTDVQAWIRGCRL

B1: scFv-His6(VL-S93ANBD) conjugate (scFv)
scFv: EVKLQESGPGLVAPSQSLSITCTVSGFSLTGYGVNWVRQPPGKGLEWLGMIWGDGNTDYNSALKSRLSISKDNSKSQVFLKMNSLHTDDTARYYCARERDYRLDYWGQGTTVTVSSGGGGSGGGGSGGGGSDIELTQSPASLSASVGETVTITCRASGNIHNYLAWYQQKQGKSPQLLVYYTTTLADGVPSRFSGSGSGTQYSLKINSLQPEDFGSYYCQHFWCTPRTFGGGTKLEIKRPLEHHHHHH
modifications: chain 1 pos 224 (VL Cys93): Cys whose S-gamma is coupled to the fluorophore IANBD (ANBD adduct), written C
The molecule B1 came in with an increase of fluorescence intensity at saturation in test [1] of 91%. For the same molecule, the maximum enhancement of fluorescence in test [2] was 27%. The fluorescence intensity at saturation relative to the free biosensor in test [3] stood at 1.26 times.
